Data as given in patent US20190308168A1.

Tests used:
Conditions in all cases: scale: mg Gammanorm/ml chromatography matrix(gel)
[1] = biological target: GAMMANORM 165 mg/ml (Octapharma no. 00 86 64), human normal immunoglobulin (human); experiment: column dynamic binding capacity at 10% breakthrough, before NaOH incubation
[2] = biological target: GAMMANORM 165 mg/ml (Octapharma no. 00 86 64), human normal immunoglobulin (human); experiment: column dynamic binding capacity at 10% breakthrough, after 5 h accumulated in 0.5 M NaOH
[3] = biological target: GAMMANORM 165 mg/ml (Octapharma no. 00 86 64), human normal immunoglobulin (human); experiment: column dynamic binding capacity at 10% breakthrough, after 3 h accumulated in 0.5 M NaOH
[4] = biological target: GAMMANORM 165 mg/ml (Octapharma no. 00 86 64), human normal immunoglobulin (human); experiment: column dynamic binding capacity at 10% breakthrough, after 1 h accumulated in 0.5 M NaOH
[5] = biological target: GAMMANORM 165 mg/ml (Octapharma no. 00 86 64), human normal immunoglobulin (human); experiment: column dynamic binding capacity at 10% breakthrough, after 10 h accumulated in 0.5 M NaOH
[6] = biological target: GAMMANORM 165 mg/ml (Octapharma no. 00 86 64), human normal immunoglobulin (human); experiment: column dynamic binding capacity at 10% breakthrough, after 15 h accumulated in 0.5 M NaOH
[7] = biological target: GAMMANORM 165 mg/ml (Octapharma no. 00 86 64), human normal immunoglobulin (human); experiment: column dynamic binding capacity at 10% breakthrough, after 20 h accumulated in 0.5 M NaOH

Sequence | Capacity (Start Capacity 1) [1] | Capacity (Start Capacity 2) [1] | Capacity after 5 h [2] | Capacity after 3 h [3] | Capacity after 1 h [4] | Capacity after 10 h [5] | Capacity after 15 h [6] | Capacity after 20 h [7]
MABSELECT SURE ligand (four domains originating from the domain B analogue Z, stabilized against high pH by protein engineering), coupled to agarose particles (designed binder) | 28.4 | 28.1 | 28.2 | 28.4 | 29.3 | 27.9 | 27 | 25.9
MABSELECT ligand (recombinant Protein A consisting of five homologous domains E, D, A, B, C), coupled to agarose particles (from UniProt P38507 37-327) | 29 | 29 | 20.3 | 23.1 | 27 | 15.8 | 12.5 | 10.1
